Laboratory results reported in publication PMC3778974 (Cell, 2013).
Where two headings read alike, the source gives them in different places. Blank lines part the entries; values can stand above or below the binder they belong to.

Columns and labels:
[1] = biological target: T1, Def1_(1-500), recombinant (Def1_(1-500)-His) (S. cerevisiae, UniProt P35732 1-500); assay: pull-down
T1 sequence (looked up): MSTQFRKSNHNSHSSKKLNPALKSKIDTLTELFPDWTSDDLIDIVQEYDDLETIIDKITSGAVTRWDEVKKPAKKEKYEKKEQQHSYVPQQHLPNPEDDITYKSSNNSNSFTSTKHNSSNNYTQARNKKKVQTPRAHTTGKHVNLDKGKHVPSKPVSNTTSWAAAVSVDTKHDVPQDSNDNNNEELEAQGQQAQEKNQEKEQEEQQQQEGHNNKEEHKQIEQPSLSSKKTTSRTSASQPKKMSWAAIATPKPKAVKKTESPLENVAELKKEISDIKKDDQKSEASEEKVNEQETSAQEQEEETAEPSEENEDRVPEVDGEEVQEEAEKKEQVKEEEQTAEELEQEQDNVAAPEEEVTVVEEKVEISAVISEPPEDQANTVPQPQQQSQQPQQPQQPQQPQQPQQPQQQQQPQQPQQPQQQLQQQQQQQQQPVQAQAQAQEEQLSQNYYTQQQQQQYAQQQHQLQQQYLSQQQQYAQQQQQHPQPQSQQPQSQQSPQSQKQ

[2] = biological target: T1, Def1_(1-500), recombinant …; assay: pull-down; remark: listed apart in the source

binding result [1]: binds
B1: recombinant Ela1-Elc1 heterodimer (full-length His-Ela1 with Elc1) (complex, S. cerevisiae)
chain 1: MKSLQTLCEISLMRNHSNIQSVSNVPYHLLKRILQKVKIPQLLKLEKSNVLLIFDDDELWLEFLRQDFPTNVHEQFVSKRDIICKYYFDFVKENDIELYHSNQDLLKSCVRQSVVKDIRNNKYRIPYRMLYSKYQQEVEKKQEESAERLRLEMQKLQQEREKKQTIVVDHTVYFKKRNTKKTTRLHNEPHSQLYMKSLKDHESRLKHFKDGGFNIAKRHAQRVAFGGQAGGQSSSPKKGPLSIKPEPVKVNRQMDNVTAEKKDVTQPITPVKKRRSESPSIFLNRKKPALFRPTPKTNAAGSRPHTTAITNDHRTTSHPYPHKDVVTSISSVTANPVTKGHKKKKSGIFVRNAGSDGDSFPHVTATGPTTRPYIYEPRK
chain 2: MSQDFVTLVSKDDKEYEISRSAAMISPTLKAMIEGPFRESKGRIELKQFDSHILEKAVEYLNYNLKYSGVSEDDDEIPEFEIPTEMSLELLLAADYLSI

binding result [2]: binds
B2: GST-Ela1_(250–379) (domain or fragment, S. cerevisiae, UniProt P53861 250-379, looked up)
chain: VNRQMDNVTAEKKDVTQPITPVKKRRSESPSIFLNRKKPALFRPTPKTNAAGSRPHTTAITNDHRTTSHPYPHKDVVTSISSVTANPVTKGHKKKKSGIFVRNAGSDGDSFPHVTATGPTTRPYIYEPRK
